Source: article PMC4672631 (Biochemistry, 2015)

molecular target: cytochrome f (PetA), spinach (spinach, UniProt P16013 36-320); test: co-purification with SDS-PAGE densitometry
Sequence (P16013 36-320): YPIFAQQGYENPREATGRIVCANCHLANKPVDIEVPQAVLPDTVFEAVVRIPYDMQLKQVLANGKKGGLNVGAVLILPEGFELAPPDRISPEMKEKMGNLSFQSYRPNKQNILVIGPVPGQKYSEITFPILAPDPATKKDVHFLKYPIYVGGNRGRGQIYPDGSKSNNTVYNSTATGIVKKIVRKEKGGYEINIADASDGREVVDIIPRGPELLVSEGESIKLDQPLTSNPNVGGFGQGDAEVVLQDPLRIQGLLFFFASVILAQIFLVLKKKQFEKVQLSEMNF

stoichiometry N | Binder
0.96 relative to cyt f | cytochrome b6, spinach (natural protein, UniProt P00165 1-215, looked up) MSKVYDWFEERLEIQAIADDITSKYVPPHVNIFYCLGGITLTCFLVQVATGFAMTFYYRPTVTDAFASVQYIMTEVNFGWLIRSVHRWSASMMVLMMILHVFRVYLTGGFKKPRELTWVTGVVLGVLTASFGVTGYSLPWDQIGYWAVKIVTGVPDAIPVIGSPLVELLRGSASVGQSTLTRFYSLHTFVLPLLTAVFMLMHFLMIRKQGISGPL
0.95 relative to cyt f | iron-sulfur protein (ISP), spinach (natural protein, UniProt P08980 52-230, looked up) ATSIPADNVPDMQKRETLNLLLLGALSLPTGYMLLPYASFFVPPGGGAGTGGTIAKDALGNDVIAAEWLKTHAPGDRTLTQGLKGDPTYLVVESDKTLATFGINAVCTHLGCVVPFNAAENKFICPCHGSQYNNQGRVVRGPAPLSLALAHCDVDDGKVVFVPWTETDFRTGEAPWWSA
0.85 relative to cyt f | subunit IV, spinach (natural protein, UniProt P00166 1-160, looked up) MGVTKKPDLNDPVLRAKLAKGMGHNYYGEPAWPNDLLYIFPVVILGTIACNVGLAVLEPSMIGEPADPFATPLEILPEWYFFPVFQILRTVPNKLLGVLLMASVPAGLLTVPFLENVNKFQNPFRRPVATTVFLVGTVVALWLGIGATLPIDKSLTLGLF
